The record followed here is paper PMC8861134.

In test [1] the target is Glucose-6-phosphate dehydrogenase K403Q (human) (UniProt P11413). Description: SEC; analytical SEC, Superdex 75 10/300 GL, 0.4 ml/min; 500 nM G6PD incubated 30 min at 23 °C in 80 mM sodium phosphate pH 8.0, with or without 10 μM NADP+; percentages in monomer equivalents; step: monomers to dimer. On the technique in general: In gel filtration, larger molecules generally elute earlier.

In test [2] the target is Glucose-6-phosphate dehydrogenase E347A, tetramer-impaired synthetic mutant (human) (UniProt P11413). The test can be described thus: native gel or EMSA; partial native PAGE (P-Native PAGE): 850 nM protein in 50 mM Tris pH 7.4, 150 mM NaCl, 23 °C, 30 min; sample buffer without SDS and BME, not boiled, run on SDS-PAGE, Western blot, quantified with Fiji; step: dimer to monomers. On the technique in general: A gel shift assay detects complexes by their altered migration in electrophoresis.

“Glucose-6-phosphate dehydrogenase K403Q (from UniProt P11413 1-515) (enzyme)”: the percent dimer in test [1] is 74%.

Regarding “Glucose-6-phosphate dehydrogenase E347A, tetramer-impaired synthetic mutant (from UniProt P11413 1-515) (enzyme)”, the percent in monomeric form in test [2] amounted to 80%.
